To fix the notation:
B1: FAM46D (parent)
chain: FQEAMTHLQHKLICTRKPEEIRGG
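Note: lentivirally expressed fusions sorted by FACS into six bins by GFP to DsRed ratio, PSI derived from sequencing read proportions per bin multiplied by bin number.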

Variants of B1 are the subject of this series. Briefly: protein stability index of a GFP-peptide fusion (GPS, HEK-293T) (PSI 1-6); higher = more stable. The note with it: c terminus: a fixed tail appended.
FQEAMTHLQHKLICTRKYEEIRGG [P18Y]: the protein stability index stood at 2.14.

As to FQEAMTHLQHKLICTRKSEEIRGG [P18S], the protein stability index was 2.43.

Take FQEAMTHLQHKLICTRKEEEIRGG [P18E]: the protein stability index amounted to 3.41.

For the variant FQEAMTHLQHKLICTRKKEEIRGG [P18K], the protein stability index was 1.82.

Take FQEAMTHLQHKLICTRKHEEIRGG [P18H]: the protein stability index was 2.33.

Turning to FQEAMTHLQHKLICTRKAEEIRGG [P18A], the protein stability index was 2.72.

Take FQEAMTHLQHKLICTRKTEEIRGG [P18T]: the protein stability index is 2.85.

On to FQEAMTHLQHKLICTRKDEEIRGG [P18D], for which the protein stability index was 2.7.

For the variant FQEAMTHLQHKLICTRKIEEIRGG [P18I], the protein stability index was found to be 2.

Take FQEAMTHLQHKLICTRKNEEIRGG [P18N]: the protein stability index came to 3.04.

In the case of FQEAMTHLQHKCICTRKPEEIRGG [L12C], the protein stability index is 2.84.

For FQEAMTHLQHKFICTRKPEEIRGG [L12F], the protein stability index turned out to be 2.38.

On to FQEAMTHLQHKAICTRKPEEIRGG [L12A], for which the protein stability index is 3.49.

As for FQEAMTHLQHKMICTRKPEEIRGG [L12M], the protein stability index was 3.84.

As for FQEAMTHLQHKSICTRKPEEIRGG [L12S], the protein stability index is 3.4.

In the case of FQEAMTHLQHKLICTRKPEEGRGG [I21G], the protein stability index is 2.69.

Regarding FQEAMTHLQHKLICTRKPEESRGG [I21S], the protein stability index came out at 3.74.

Regarding FQEAMTHLQHKLICTRKPEECRGG [I21C], the protein stability index was determined as 2.73.

On to FQEAMTHLQHKLICTRKPEEFRGG [I21F], for which the protein stability index was 2.62.

As to FQEAMTHLQHKLICTRKPEEWRGG [I21W], the protein stability index was 2.07.

Turning to FQEAMTHLQHKLICTRKPEENRGG [I21N], the protein stability index worked out at 3.87.

On to FQEAMTHLQHKLICTRKPEEHRGG [I21H], for which the protein stability index stood at 3.4.

For FQEAMTHLQHKLICTRKPEEERGG [I21E], the protein stability index amounted to 2.98.

FQEAMTHLQHKLISTRKPEEIRGG [C14S]: the protein stability index came out at 2.87.

With FQEAMTHLQHKLIDTRKPEEIRGG [C14D], the protein stability index is 3.17.

For FQEAMTHLQHKLITTRKPEEIRGG [C14T], the protein stability index turned out to be 2.7.

Consider FQEAMTHLQHKLIPTRKPEEIRGG [C14P], for which the protein stability index amounted to 2.33.

Consider FQEAMTHLQHKLIVTRKPEEIRGG [C14V], for which the protein stability index was 2.96.

For the variant FQEAMTHLQHKLICTFKPEEIRGG [R16F], the protein stability index came to 2.62.

Take FQEAMTHLQHKLICTYKPEEIRGG [R16Y]: the protein stability index worked out at 3.21.

As to FQEAMTHLQHKLICTVKPEEIRGG [R16V], the protein stability index was found to be 2.77.

Turning to FQEAMTHLQHKLICTIKPEEIRGG [R16I], the protein stability index was 2.08.

For the variant FQEAMTHLQHKLICTNKPEEIRGG [R16N], the protein stability index was determined as 3.02.

In the case of FQEAMTHLQHKLICTHKPEEIRGG [R16H], the protein stability index turned out to be 2.6.

On to FQEAMTHLQHKLFCTRKPEEIRGG [I13F], for which the protein stability index came to 1.73.

Take FQEAMTHLQHKLYCTRKPEEIRGG [I13Y]: the protein stability index turned out to be 3.58.

For the variant FQEAMTHLQHKLPCTRKPEEIRGG [I13P], the protein stability index was determined as 2.95.

For FQEAMTHLQHKLGCTRKPEEIRGG [I13G], the protein stability index worked out at 2.67.

For FQEAMTHLQHKLVCTRKPEEIRGG [I13V], the protein stability index was 2.76.

FQEAMTHLQHKLDCTRKPEEIRGG [I13D]: the protein stability index was found to be 2.57.

Consider FQEAMTHLQHKLMCTRKPEEIRGG [I13M], for which the protein stability index is 2.61.

For FQEAMTQLQHKLICTRKPEEIRGG [H7Q], the protein stability index was 2.93.

On to FQEAMTLLQHKLICTRKPEEIRGG [H7L], for which the protein stability index is 1.67.

As to FQEAMTALQHKLICTRKPEEIRGG [H7A], the protein stability index worked out at 2.44.

As to FQEAMTRLQHKLICTRKPEEIRGG [H7R], the protein stability index is 2.66.

For the variant FQEAMTKLQHKLICTRKPEEIRGG [H7K], the protein stability index was 2.61.

FQEAMTGLQHKLICTRKPEEIRGG [H7G]: the protein stability index turned out to be 2.71.

For FQEAMTNLQHKLICTRKPEEIRGG [H7N], the protein stability index was 3.19.

As for FQEAMTPLQHKLICTRKPEEIRGG [H7P], the protein stability index was found to be 3.4.

Take FQEAMTILQHKLICTRKPEEIRGG [H7I]: the protein stability index turned out to be 1.59.

As for FQEAMTHLQHSLICTRKPEEIRGG [K11S], the protein stability index was 3.15.

With FQEAMTHLQHWLICTRKPEEIRGG [K11W], the protein stability index amounted to 1.58.

Consider FQEAMTHLQHGLICTRKPEEIRGG [K11G], for which the protein stability index was 2.38.

On to FQEAMTHLQHLLICTRKPEEIRGG [K11L], for which the protein stability index worked out at 2.79.

In the case of FQEAMTHLQHCLICTRKPEEIRGG [K11C], the protein stability index turned out to be 2.89.

For FQEAMTHLQHELICTRKPEEIRGG [K11E], the protein stability index is 3.88.

FQENMTHLQHKLICTRKPEEIRGG [A4N]: the protein stability index came out at 3.36.

Consider FQEVMTHLQHKLICTRKPEEIRGG [A4V], for which the protein stability index stood at 2.63.

For FQEPMTHLQHKLICTRKPEEIRGG [A4P], the protein stability index worked out at 2.62.

Consider FQEGMTHLQHKLICTRKPEEIRGG [A4G], for which the protein stability index amounted to 2.74.

As for FQEKMTHLQHKLICTRKPEEIRGG [A4K], the protein stability index was 3.51.

As for FQEIMTHLQHKLICTRKPEEIRGG [A4I], the protein stability index was found to be 2.42.

In the case of FQEAMTHLGHKLICTRKPEEIRGG [Q9G], the protein stability index worked out at 2.09.

As to FQEAMTHLNHKLICTRKPEEIRGG [Q9N], the protein stability index amounted to 1.79.

As to FQEAMTHLRHKLICTRKPEEIRGG [Q9R], the protein stability index was found to be 2.7.

Consider FQEAMTHLYHKLICTRKPEEIRGG [Q9Y], for which the protein stability index worked out at 2.3.

Consider FQEAMTHLCHKLICTRKPEEIRGG [Q9C], for which the protein stability index stood at 1.89.

For FQEAMTHLEHKLICTRKPEEIRGG [Q9E], the protein stability index worked out at 3.36.

FQEAMTHLQHKLICTRKPEEIRGK [G24K]: the protein stability index came to 3.34.

Take FQEAMTHLQHKLICTRKPEEIRGC [G24C]: the protein stability index turned out to be 2.52.

Regarding FQEAMTHLQHKLICTRKPEEIRGH [G24H], the protein stability index was 2.26.

In the case of FQEAMTHLQHKLICTRKPEEIRGW [G24W], the protein stability index is 1.68.

On to FQEAMTHLQHKLICTRKPEEIRGF [G24F], for which the protein stability index was 2.3.

With FQEAMTHLQHKLICTRKPEEIRGY [G24Y], the protein stability index was determined as 2.59.

With FQEAMTHLQHKLICTRKPEEIRGL [G24L], the protein stability index was found to be 2.45.

On to FQEAMTHLQHKLICTRKPEEIRGD [G24D], for which the protein stability index turned out to be 2.96.

Consider FQEAMTHLQHKLICTRKPEEIRGV [G24V], for which the protein stability index was found to be 3.09.

On to FQEAMTHLQLKLICTRKPEEIRGG [H10L], for which the protein stability index is 2.24.

Consider FQEAMTHLQKKLICTRKPEEIRGG [H10K], for which the protein stability index was 2.94.

As to FQEAMTHLQFKLICTRKPEEIRGG [H10F], the protein stability index turned out to be 1.73.

On to FQEAMTHLQDKLICTRKPEEIRGG [H10D], for which the protein stability index worked out at 3.14.

As to FQEAMTHLQYKLICTRKPEEIRGG [H10Y], the protein stability index was 2.11.

For FQEAMTHLQTKLICTRKPEEIRGG [H10T], the protein stability index worked out at 3.52.

With FQEAMTHLQSKLICTRKPEEIRGG [H10S], the protein stability index was 2.5.

Take FQEAMTHLQCKLICTRKPEEIRGG [H10C]: the protein stability index was determined as 2.72.

Consider FQEAMTHLQHKLICTRGPEEIRGG [K17G], for which the protein stability index was found to be 2.77.

For the variant FQEAMTHLQHKLICTRFPEEIRGG [K17F], the protein stability index stood at 2.03.

With FQEAMTHLQHKLICTRRPEEIRGG [K17R], the protein stability index turned out to be 2.02.

In the case of FQEAMTHLQHKLICTRWPEEIRGG [K17W], the protein stability index turned out to be 2.03.

As to FQEAMTHLQHKLICTRQPEEIRGG [K17Q], the protein stability index came out at 2.33.

In the case of FQEAMTHLQHKLICTRLPEEIRGG [K17L], the protein stability index came out at 1.66.

Consider FQEAMTHLQHKLICTRMPEEIRGG [K17M], for which the protein stability index worked out at 2.87.

For FQEAMTHLQHKLICTRPPEEIRGG [K17P], the protein stability index came out at 2.52.

For FQEAMTHLQHKLICTRDPEEIRGG [K17D], the protein stability index stood at 3.46.

The values above are taken from the supplement of paper PMC10567573.
